Measured values: paper PMC7445770

Target: RNA polymerase (RNAP), core enzyme without sigma factor (E. coli (endogenous in the cell-free extract))

| Kσ28: dissociation constant obtained by fitting a nonlinear ODE model to GFP/mRNA time-series responses of the pTar-tetO combinatorial promoter in E. coli TX-TL cell-free extract (29°C) [nM] | Kσ70: dissociation constant obtained by fitting a nonlinear ODE model to GFP/mRNA time-series responses of the pTar-tetO combinatorial promoter in E. coli TX-TL cell-free extract (29°C) [pM] | Substance |
| --- | --- | --- |
| 0.0053 |  | sigma factor 28 (from UniProt P0AEM6 1-239) (natural protein) |
|  | 0.0018 | sigma factor 70 (from UniProt P00579 1-613) (natural protein) |
